The results in this text go back to publication PMC4385862.

The conditions of data set [1]: phosphorylation at Y342.
For a further data set, the target named is β1 integrin (UniProt P05556). Briefly: co-immunoprecipitation and Western blot. The following applies: reference: wild-type GFP-K18; sites S52. On the technique in general: In western blotting, separated proteins are transferred to a membrane and probed.

For the substance ClC-3: Y342F, in data set [1], the other result is given as “decreases”.

For “keratin 18 (K18) (from UniProt P05783) S52A GFP-K18”, the “binding against the reference” value with β1 integrin was “lost”.
